Target: T1, pig α2β1 integrin (pig, UniProt F1SMF4 28-1178; Q9GLP0 21-798)
T1 construct: whole, on cells; Tested with whole blood
Assay: FACS on whole blood, PE-coupled goat anti-mouse IgG

B1: anti-α2 integrin mAb purified from hybridoma supernatant (murine) (antibody, mouse IgG2a, kappa)
light: NIVLTQSPASLAVSLGQRATISCRASESVESYGNSFIYWYQQKPGQAPKLLIYLASNLASGVPARFSGSGSRTDFTLTIDPVEADDAATYYCQQNNEDPYTFGGGTKLEIKRADAAPTVSIFPPSSEQLTSGGASVVCFLNNFYPKDINVKWKIDGSERQNGVLNSWTDQDSKDSTYSMSSTLTLTKDEYERHNSYTCEATHKTSTSPIVKSFNRNEC
heavy: QVQLHQPGAELVKPGAPVKLSCKASGYTFTSYWMNWVKQRPGRGLEWIGRIDPSDSETHYNQKFKDKATLTVDKSSSTAYIQLSSLTSEDSAVYYCAKVGRGYFDYWGQGTTLTVSSAKTTAPSVYPLAPVCGDTTGSSVTLGCLVKGYFPEPVTLTWNSGSLSSGVHTFPAVLQSDLYTLSSSVTVTSSTWPSQSITCNVAHPASSTKVDKKIEPRGPTIKPCPPCKCPAPNLLGGPSVFIFPPKIKDVLMISLSPIVTCVVVDVSEDDPDVQISWFVNNVEVHTAQTQTHREDYNSTLRVVSALPIQHQDWMSGKEFKCKVNNKDLPAPIERTISKPKGSVRAPQVYVLPPPEEEMTKKQVTLTCMVTDFMPEDIYVEWTNNGKTELNYKNTEPVLDSDGSYFMYSKLRVEKKNWVERNSYSCSVVHEGLHNHHTTKSFSRTPGK
notes: also called α2 mAb from hybridoma supernatant; anti-α2 integrin monoclonal mouse antibody
binding result: no binding
